± gives the standard deviation.

The series in a line: protein stability index of a GFP-peptide fusion (GPS, HEK-293T) (PSI 1-6); higher = more stable.
Setting [1] is: treatment: MLN4924 1 uM, 8 h, c terminus: native.
The mark [2] stands for this setting: treatment: DMSO, c terminus: a fixed tail appended.
[3] abbreviates: treatment: MLN4924 1 uM, 8 h, c terminus: a fixed tail appended.
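Further: 24-mer peptide tiles fused after GFP, lentivirally expressed, FACS-sorted into six equal bins by GFP/DsRed ratio, decoded by Illumina sequencing, PSI is the read-weighted mean bin number.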

Regarding CLHMFLQDEIIDKSYTPSKIRHA [SNX3], the protein stability index under setting [1] came out at 2.77 ± 0.46. Regarding AVEDGLQQFKQYSRHVTTRAALTY [M1AP], the protein stability index under setting [2] worked out at 3.14 ± 0.42 and the protein stability index under setting [3] was 3.1 ± 0.23. Take DLVMALSAGGHGGLLNDTSAPHLE [KCNA4]: the protein stability index reads like this: under setting [2], 2.8 ± 0.35; under setting [3], 2.58 ± 0.26.

On to QGVISQLEDTCKTIEECCRKQKQE [TRIM55], for which the protein stability index by setting is: under setting [2], 5.2 ± 0.29; under setting [3], 5.34 ± 0.31. Regarding LPVPPTPGLLSLATTSASDSLKPE [TFE3], the protein stability index was determined as 4.87 ± 0.26 under setting [2] and 5.04 ± 0.29 under setting [3]. For PKKDLEDGEVPQHAGKKGKLSEHL [BRD3] the same measures were 5.18 ± 0.26 and 5.3 ± 0.26. Turning to CDECGKIFSQSSALILHQRIHSGK [ZNF396], the protein stability index was 5.51 ± 0.39 under setting [2] and 5.51 ± 0.11 under setting [3]. Take RDLAARWKKLVLVDRNTRPGPQDP [ELOA2]: the protein stability index runs as follows: under setting [2], 3.38 ± 0.19; under setting [3], 3.49 ± 0.23. For TRRTLKGHGNKVLCMDWCKDKRRI [GNB5], the protein stability index reads like this: under setting [2], 3.02 ± 0.37; under setting [3], 3.25 ± 0.23.

For the sequence EEEDEILPRKDYESLDYDRCINDP [CLCN6], the protein stability index is 5.52 ± 0.17 under setting [2] and 5.48 ± 0.29 under setting [3]. As to KVESGAWIGYEHTSFCGQQFILER [CRYBA1], the protein stability index by setting is: under setting [2], 2.18 ± 0.26; under setting [3], 2.18 ± 0.19. As to SVMAIERCIGVTKPIFHSTKITSK [PTGFR], the protein stability index reads like this: under setting [2], 2.71 ± 0.16; under setting [3], 2.98 ± 0.49. Take IITRHNLTYEFLQARLRQHYQTI [CLCN6]: the protein stability index runs as follows: (treatment: DMSO, c terminus: native) 2.75 ± 0.49; under setting [1], 2.69 ± 0.46. Regarding SKKTFQITKQGDGVDFLSWFLNAL [USP39], the protein stability index reads like this: under setting [2], 2.35 ± 0.16; under setting [3], 2.29 ± 0.24. On to YMRYSRKVWDQVKASNPDLKLWEI [SMARCE1], for which the protein stability index runs as follows: under setting [2], 2.18 ± 0.73; under setting [3], 1.95 ± 0.066. For TIQKGSYTFVPWLLSFKRGSALEE [TNFSF13B] the same measures were 2.11 ± 0.15 and 2.04 ± 0.22.

With CRKCIASSGCFMEYLENQVIKDKD [RNF180], the protein stability index under setting [2] was 2.42 ± 0.26 and the protein stability index under setting [3] was found to be 2.5 ± 0.41. Consider YSSQLSQVQSLITNVESQLAEIRS [KRT33B], for which the protein stability index is, setting by setting: under setting [2], 3.49 ± 0.1; under setting [3], 3.66 ± 0.2. Regarding FLLSQQTDLPECEQSSARQKASLL [TCF25], the protein stability index stood at 3.78 ± 0.52 under setting [2] and 3.83 ± 0.12 under setting [3]. As for DQDLRTYLDKAPPPGLPAETIKDL [CDK4], the protein stability index under setting [2] was found to be 5.07 ± 0.28 and the protein stability index under setting [3] turned out to be 4.94 ± 0.2. Turning to EGNLAETENRYCVQLSQIQGLIGS [KRT17], the protein stability index is, setting by setting: under setting [2], 3.63 ± 0.15; under setting [3], 3.94 ± 0.12.

NKTDVVLILELVSGGELFDFLAEK [DAPK3]: the protein stability index turned out to be 2.55 ± 0.58 under setting [2] and 2.68 ± 0.96 under setting [3]. Regarding TLAVTCQLPIDRGGGEGKAMYIDT [RAD51], the protein stability index by setting is: under setting [2], 3.14 ± 0.25; under setting [3], 3.33 ± 0.32.

Regarding SRIAKGGVDHTKMSLHGASGGHER [BTBD10], the protein stability index under setting [2] was determined as 4.5 ± 0.19 and the protein stability index under setting [3] amounted to 4.43 ± 0.14. Consider EEEEEEEEEEDDLSELPPLEDMGQ [FKBP8], for which the protein stability index was determined as 5.37 ± 0.3 under setting [2] and 5.63 ± 0.12 under setting [3]. In the case of QQIQGLISSIEAQLSELRSEMECQ [KRT13], the protein stability index was determined as 3.6 ± 0.14 under setting [2] and 3.44 ± 0.5 under setting [3]. QHNLCRKCASDIFQASNPYLPTRG [TRIM55] had a protein stability index under setting [2] of 2.29 ± 0.26 and a protein stability index under setting [3] of 2.45 ± 0.22.

Regarding VNLQVATYSKFQPQSPDFLDITNP [UFD1], the protein stability index under setting [2] was 2.53 ± 0.23 and the protein stability index under setting [3] turned out to be 2.57 ± 0.27. For AVVSQMDQEQGSSFQMSEGSEAAV [FAM189A2] the same measures were 5.46 ± 0.29 and 5.44 ± 0.17.

Take RGGMGSGGLATGIAGGLAGMGGIQ [KRT18]: the protein stability index came to 3.61 ± 0.18 under setting [2] and 3.38 ± 0.23 under setting [3]. The corresponding values for PELMEHTEAESEQEGSSGMELSWG [TEX19] are 5.4 ± 0.32 and 5.32 ± 0.35. For FEKHRWPPVWYLKEEDHYQRARKE [RHOBTB2], the protein stability index is, setting by setting: under setting [2], 3.26 ± 0.3; under setting [3], 3.52 ± 0.5. Consider AGSSTWERYFIPVSCFLTFNIFDW [SLC29A1], for which the protein stability index worked out at 3.09 ± 0.2 under setting [2] and 3.05 ± 0.58 under setting [3]. TDLKTLCCEFLEGCIAAENCIGIR [GAN] yielded a protein stability index under setting [2] of 2.35 ± 0.4 and a protein stability index under setting [3] of 2.48 ± 0.2. Turning to HGNEVLGRELLLLLVQFVCQEYLA [CPXM2], the protein stability index was 3.11 ± 1.1 under setting [2] and 2.98 ± 1.2 under setting [3]. As for EPLRILSKYHRFISFTLYLIGFCM [CDS2], the protein stability index is, setting by setting: under setting [2], 1.95 ± 0.32; under setting [3], 1.96 ± 0.16. With SPNRSLPSPGVLCGSARPKPYDPP [ATF4], the protein stability index is 3.67 ± 0.19 under setting [2] and 3.72 ± 0.26 under setting [3]. Take VKWLSFHSGYDFGYLIKILTNSNL [CNOT7]: the protein stability index is, setting by setting: under setting [2], 2.58 ± 0.21; under setting [3], 2.86 ± 0.69. The corresponding values for CAVLDDSIYLVGGYSWSMGAYKSS [KLHL14] are 2.52 ± 0.64 and 2.17 ± 0.64. Take MLLPQLCWLPLLAGLLPPVPAQKF [SMOC2]: the protein stability index by setting is: under setting [2], 3.51 ± 0.69; under setting [3], 3.67 ± 1.4. For KEQHLWDVDLLDSKVIEILDSQTE [DLC1] the same measures were 4.79 ± 0.26 and 4.5 ± 0.18. Turning to MDQLQGLGSDYEQPLEVKNNSNLQ [CDC25A], the protein stability index under setting [2] came to 5.09 ± 0.17 and the protein stability index under setting [3] amounted to 4.85 ± 0.18. As to PSATRAKPGPQDTVERPFYDLWAS [NOP53], the protein stability index amounted to 3.08 ± 0.37 under setting [2] and 3.24 ± 0.37 under setting [3]. Take RWDMADNEQVLTTEHEKKQKLETD [YJU2B]: the protein stability index was determined as 5.39 ± 0.32 under setting [2] and 5.37 ± 0.21 under setting [3].

As for FLWGPRALIETSYVKVLHHMVKIS [MAGEA6], the protein stability index reads like this: under setting [2], 2.14 ± 0.89; under setting [3], 2.59 ± 0.65. For TVLKQIAPEYFEKNEPYLEAACND [DENND6A] the same measures were 3.09 ± 0.05 and 3.26 ± 0.43.

Regarding QNKIRACGERLSLGLSRAQPVQSK [PDLIM7], the protein stability index worked out at 3.92 ± 0.28 under setting [2] and 3.85 ± 0.2 under setting [3]. For SNDGARRQFEFYLEEMILPLMVAS [BTBD10] the same measures were 2.25 ± 0.078 and 2.2 ± 0.073.

On to KQLALDHFKKTKKMGGKDFSFRYQ [ATL3], for which the protein stability index reads like this: under setting [2], 2.86 ± 0.17; under setting [3], 3.12 ± 0.19.

As for PELSYRVCVGSDVTSIHKYMVRRY [MYORG], the protein stability index by setting is: under setting [2], 2.31 ± 0.14; under setting [3], 2.27 ± 0.24. For DLDRMGVMTLPSDLRKHRRKLLSP [PPFIA4] the same measures were 3.72 ± 0.25 and 3.73 ± 0.12. As for RPGVQDAALIEAIQDRLSNTLQTY [VDR], the protein stability index is, setting by setting: under setting [2], 2.78 ± 0.3; under setting [3], 3.09 ± 0.28. As for RIHERLVAGSLAGAIAQSSIYPME [SLC25A25], the protein stability index runs as follows: under setting [2], 2.74 ± 0.52; under setting [3], 2.56 ± 0.27. As for VSNTRLIAAATSVLKTRFSYAFPK [CCNC], the protein stability index is 2.24 ± 0.44 under setting [2] and 1.96 ± 0.34 under setting [3].

With VRHLEEENRGIVVLGINRAYGKNS [AUH], the protein stability index under setting [2] worked out at 3.15 ± 0.36 and the protein stability index under setting [3] is 3.31 ± 0.22. Consider VCNKKFKMKHHLTEHMKTHTGLKP [ZBTB22], for which the protein stability index is, setting by setting: under setting [2], 3.18 ± 0.14; under setting [3], 3.21 ± 0.23. Turning to KIQDLIDDKDALVFVLIDEVESLT [TRIP13], the protein stability index was found to be 2.46 ± 0.36 under setting [2] and 2.36 ± 0.11 under setting [3].

Consider GGEEEDEDENIEVVYSKAASVPKV [EIF5], for which the protein stability index by setting is: under setting [2], 5.18 ± 0.14; under setting [3], 4.93 ± 0.47. The corresponding values for NGKEFNNWFNVTGSDKCVFLKNTE [CD69] are 3.2 ± 0.31 and 3.08 ± 0.42.

Regarding GEGRKSRKFSRLSCLRRRRHPPKV [SMG5], the protein stability index by setting is: under setting [2], 3.69 ± 0.37; under setting [3], 3.82 ± 0.28. The corresponding values for KLDQLDQDIENALSTSSSPSGTPT [DLC1] are 5.2 ± 0.19 and 5.35 ± 0.27. LEVDHIRTIYHMFIALLILFILST [SOAT1] displayed a protein stability index under setting [2] of 2.58 ± 0.39 and a protein stability index under setting [3] of 2.43 ± 0.41. For the sequence PETKQRKLSPLRLSVSNNQEPDFI [KMT2E], the protein stability index is, setting by setting: under setting [2], 4.16 ± 0.24; under setting [3], 4.38 ± 0.32. In the case of TEQFTAMRDLYMKNGQGFALVYSI [RAP1B], the protein stability index by setting is: under setting [2], 3.25 ± 1; under setting [3], 2.96 ± 0.5. For HRFVEKPQVFVSNKINAGMYILSP [GMPPB], the protein stability index was 2.25 ± 0.21 under setting [2] and 2.29 ± 0.13 under setting [3].

As to TALVTVSSEEFEDKWFRKIKDHFC [C8orf76], the protein stability index by setting is: under setting [2], 2.33 ± 0.16; under setting [3], 2.54 ± 0.25. MGEPAGVAGTMESPFSPGLFHRLD [ATF6]: the protein stability index worked out at 3.58 ± 0.14 under setting [2] and 3.79 ± 0.36 under setting [3]. RRVRLELWDTSGQGRFCTIFRSYS [RAB40C] had a protein stability index under setting [2] of 2.35 ± 0.5 and a protein stability index under setting [3] of 1.99 ± 0.29.

In turn, SARWLEVLRTYLELVLCVLVSIRN [FBXO33] displayed a protein stability index under setting [2] of 2.33 ± 0.31 and a protein stability index under setting [3] of 2.16 ± 0.21.

With HGRIPDPDDFVPPVPPPSYFATFY [FAM189A2], the protein stability index came to 2.24 ± 0.25 under setting [2] and 2.23 ± 0.34 under setting [3]. For LGISPSTCSFNPGVIVANMTEWKH [GLT8D2] the same measures were 2.59 ± 0.3 and 2.59 ± 0.23. For NAGQSDNRSLAEACSEGDVNAVRK [ANKRD17] the same measures were 5.56 ± 0.15 and 5.46 ± 0.15. Under setting [3], SQKVLGLNEDPLKWWSDRLALFPL [ZBED1] yielded a protein stability index of 2.14 ± 0.63.
